Assay results published in patent US20200277373A1 (DENALI THERAPEUTICS, published 2020).

T1: Human TREM2 protein, on cells (human, UniProt Q9NZC2 19-230)
T1 sequence: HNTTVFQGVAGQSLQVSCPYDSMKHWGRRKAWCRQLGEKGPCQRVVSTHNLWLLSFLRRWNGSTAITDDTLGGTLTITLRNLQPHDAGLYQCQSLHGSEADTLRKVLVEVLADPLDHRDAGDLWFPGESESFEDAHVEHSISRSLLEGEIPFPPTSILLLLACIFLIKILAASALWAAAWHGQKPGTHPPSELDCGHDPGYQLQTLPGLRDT

T2: Mouse TREM2, on cells (mouse, UniProt Q99NH8 19-227)
T2 construct: whole, on cells; also called mouse TREM2 HEK
T2 sequence (looked up): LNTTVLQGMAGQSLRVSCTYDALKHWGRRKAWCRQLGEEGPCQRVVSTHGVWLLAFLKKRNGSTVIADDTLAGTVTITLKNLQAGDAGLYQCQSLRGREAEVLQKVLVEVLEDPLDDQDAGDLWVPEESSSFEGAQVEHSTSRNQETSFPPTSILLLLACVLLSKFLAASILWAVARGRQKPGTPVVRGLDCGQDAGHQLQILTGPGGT

T3: His-tagged TREM2 ECD (ecto domain residues 19-172 of human TREM2, C-terminal 6X-His tag) (human, UniProt Q9NZC2 19-172)
T3 construct: Made in Expi293F cells; the mouse Ig kappa secretion signal is not part of the mature protein; Biotinylated for the Octet binning; also called TREM2-His; TREM2-His protein
T3 sequence: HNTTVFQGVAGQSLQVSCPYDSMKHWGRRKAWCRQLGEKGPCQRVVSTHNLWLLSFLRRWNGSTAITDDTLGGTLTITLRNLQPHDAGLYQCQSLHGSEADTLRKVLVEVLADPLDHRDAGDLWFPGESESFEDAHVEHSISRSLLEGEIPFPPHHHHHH

T4: Human TREM2 synthetic 9-mer peptide DLWFPGESE (human)
T4 construct: also called TREM2 peptide; TREM2 9-mer peptide
T4 peptide: DLWFPGESE

B1: RS9.F6 (antibody, V domains shown)
VH: QVQLQQPGAELVKPGASVKLSCKASGYTFTSYWMHWVKQSPGRGLEWIGRSDPTTGGTNYNEKFKTKATLTVDKPSSTAYMQLSSLTSDDSAVYYCVRTSGTGDYWGQGTSLTVSS
VL: DVVMTQTPLSLPVSLGDQASISCRSSQSLVHNNGNTFLHWYLQKPGQSPKLLIYKVSNRFSGVPDRFSGSGSGTDFTLKISRVEAEDLGVYFCSQTTHVPPTFGGGTKLEIK
B2: F6 Fab (Fab fragment of anti-TREM2 antibody RS9.F6) (Fab, V domains shown)
VH: QVQLQQPGAELVKPGASVKLSCKASGYTFTSYWMHWVKQSPGRGLEWIGRSDPTTGGTNYNEKFKTKATLTVDKPSSTAYMQLSSLTSDDSAVYYCVRTSGTGDYWGQGTSLTVSS
VL: DVVMTQTPLSLPVSLGDQASISCRSSQSLVHNNGNTFLHWYLQKPGQSPKLLIYKVSNRFSGVPDRFSGSGSGTDFTLKISRVEAEDLGVYFCSQTTHVPPTFGGGTKLEIK
notes: Fab expressed in Expi-293 cells; also called TREM2 Fab
B3: RS9.F6/3C.35.21.17 (bispecific antibody, human IgG1, L234A L235A)
heavy 1: QVQLQQPGAELVKPGASVKLSCKASGYTFTSYWMHWVKQSPGRGLEWIGRSDPTTGGTNYNEKFKTKATLTVDKPSSTAYMQLSSLTSDDSAVYYCVRTSGTGDYWGQGTSLTVSSASTKGPSVFPLAPSSKSTSGGTAALGCLVKDYFPEPVTVSWNSGALTSGVHTFPAVLQSSGLYSLSSVVTVPSSSLGTQTYICNVNHKPSNTKVDKKVEPKSCDKTHTCPPCPAPEAAGGPSVFLFPPKPKDTLMISRTPEVTCVVVDVSHEDPEVKFNWYVDGVEVHNAKTKPREEQYNSTYRVVSVLTVLHQDWLNGKEYKCKVSNKALGAPIEKTISKAKGQPREPQVYTLPPSRDELTKNQVSLWCLVKGFYPSDIAVLWESYGTEWASYKTTPPVLDSDGSFFLYSKLTVTKEEWQQGFVFSCSVMHEALHNHYTQKSLSLSPGK
heavy 2: QVQLQQPGAELVKPGASVKLSCKASGYTFTSYWMHWVKQSPGRGLEWIGRSDPTTGGTNYNEKFKTKATLTVDKPSSTAYMQLSSLTSDDSAVYYCVRTSGTGDYWGQGTSLTVSSASTKGPSVFPLAPSSKSTSGGTAALGCLVKDYFPEPVTVSWNSGALTSGVHTFPAVLQSSGLYSLSSVVTVPSSSLGTQTYICNVNHKPSNTKVDKKVEPKSCDKTHTCPPCPAPEAAGGPSVFLFPPKPKDTLMISRTPEVTCVVVDVSHEDPEVKFNWYVDGVEVHNAKTKPREEQYNSTYRVVSVLTVLHQDWLNGKEYKCKVSNKALGAPIEKTISKAKGQPREPQVYTLPPSRDELTKNQVSLSCAVKGFYPSDIAVEWESNGQPENNYKTTPPVLDSDGSFFLVSKLTVDKSRWQQGNVFSCSVMHEALHNHYTQKSLSLSPGK
light: DVVMTQTPLSLPVSLGDQASISCRSSQSLVHNNGNTFLHWYLQKPGQSPKLLIYKVSNRFSGVPDRFSGSGSGTDFTLKISRVEAEDLGVYFCSQTTHVPPTFGGGTKLEIK
notes: second: RS9.F6 Fd on Fc with LALAPG and hole mutations; Vectors co-transfected 1:1:2; also called RS9.F6/3C35.21.17_LALAPG; ATV-Anti-TREM2
B4: 24B4.A1 (antibody, V domains shown)
VH: QVHLQQSGSELRSPGSSVKLSCKDFDSEVFPISYMSWIRQKPGHGFEWIGDILPSIGGRIYGVKFEDRATLDADTVSNTAYLELNSLTSEDSAIYYCARKDYGSLAYWGQGTLVTVSA
VL: DVVMTQTPLSLPVSLGDQASISCRSSQSLVHINGNTYLQWFLQKPGQSPKLLIYKVSNRFSGVPDRFSGSGSGTAFTLKISRVEAEDLGVYFCSQSTHVPYTFGGGTKLEIK
notes: Mouse hybridoma antibody, Ig2a, k; same entries as 26E2.A3; also called RS8.24B4.A1
B5: RS9.F10 (antibody, V domains shown)
VH: QVQLQQPGAELVKPGASVKLSCKASGYTFTSYWMHWVKQSPGRGLEWIGRSDPTTGGTNYNEKFKTKATLTVDKPSSTAYMQLSSLTSDDSAVYYCVRTSGTGDYWGQGTSLTVSS
VL: DVVMTQTPLSLPVSLGDQASISCRSSQSLVHNNGNTFLHWYLQKPGQSPKLLIYKVSNRFSGVPDRFSGSGSGTDFTLKISRVEAEDLGVYFCSQTTHVPPTFGGGTKLEIK
notes: same entries as RS9.F6; also called RS.F10
B6: 54C2.A1 (antibody, V domains shown)
VH: QVHLQQSGSELRSPGSSVKLSCKDFDSEVFPIAYMSWVRQKPGHGFEWIGDILPSIGRRIYGVKFEDKATLDADTVSNTAYLELNSLTSEDSAIYYCTRKDYGSLAYWGQGTLVTVSA
VL: DVVMTQTPLSLPVSLGDQASISCRSSQSLVHINGNTYLQWYLQKPGQSPKLLIYKVSNRFSGVPDRFSGSGSGTDFTLRISRVEAEDLGVYFCSQSTHLPYTFGGGTKLEIK
notes: Mouse hybridoma antibody, Ig2b, k; also called RS8.54C2.A1

Columns and labels:
[1] = biological target: T1, Human TREM2 protein, on cells; assay: cell-based or functional assay
[2] = biological target: T1, Human TREM2 protein, on cells; assay: cell-based or functional assay; remark: listed apart in the source
[3] = biological target: T1, Human TREM2 protein, on cells; assay: flow cytometry titration on hTREM2-HEK cells
Text: (§1) FIGS. 1A-1D. […] (A) Anti-TREM2 antibodies were screened for binding to HEK cells expressing human TREM2 (unlabeled) and mouse TREM2 HEK expressing cells (labeled with NucBlue). Antibody binding was detected with a secondary anti-mouse multiple adsorption antibody conjugated to APC. […] (B) Parental HEK-GFP cells were used as a negative control to rule out non-specific binding. (C) Anti-TREM2 antibody surface binding dose response in hTREM2-HEK cells. Anti-TREM2 antibodies were titrated for binding to HEK cells expressing human TREM2. Antibody binding was detected with a secondary anti-mouse multiple adsorption antibody conjugated to APC. […] Mouse TREM2 HEK cells were titrated for binding as in (C).
(§2) After labeling, cells were washed twice with 1×PBS. […] Mixed cell lines were seeded at 300,000 cells per well in a 96-well round-bottom and incubated 20 minutes at room temperature. After incubation, cells were centrifuged and test anti-TREM2 antibodies were added, then incubated for 45 minutes on ice. After incubation, cells were centrifuged and washed with FACS buffer three times.

Mouse TREM2, on cells [4] = biological target: T2, Mouse TREM2, on cells; assay: flow cytometry titration on mTREM2-293F cells
Text: as §1, §2

[5] = biological target: T3, His-tagged TREM2 ECD (ecto domain …); assay: Table 1 Kd; Biacore, TREM2-His analyte (presumed)
Method: Anti-murine Fc antibody (obtained from GE Healthcare) was immobilized on the surface of a CM5 chip (obtained from GE Healthcare) through amine-coupling to reach about 6,000 to 8,000 response units (RU). The surface was activated by injection of a mixture of 1-ethyl-3-(3-dimethylaminopropyl)-carbodiimide (EDC) and N-hydroxysuccinimide (NHS), both obtained from GE Healthcare, for 7 minutes. Anti-murine Fc antibody was diluted in sodium acetate (pH 5.0) at 25 μg/mL and injected for 10 minutes at a flow rate of 5 μL/minute, followed by injection of ethanolamine (obtained from GE Healthcare) for 7 minutes.
Purified anti-TREM2 hybridoma (20 μg/mL) was captured to reach 1000-1500 RU. A range of serially-diluted TREM2-His protein (e.g., 3.4 nM to 300 nM) was injected at a flow rate of 30 μL/minute, using either single-cycle kinetics methods. Sensorgrams were fitted using a 1:1 Langmuir model to estimate kₒₙ and koff.

Mouse TREM2, on cells [6] = biological target: T2, Mouse TREM2, on cells; assay: flow cytometry, 293F cells overexpressing mouse TREM2
Method: as §2
(§3) The data in Table 2 is presented as fold over binding (FOB).

[7] = biological target: T1, Human TREM2 protein, on cells; assay: flow cytometry, HEK293 cells overexpressing human TREM2
Method: as §2, §3

[8] = biological target: T3, His-tagged TREM2 ECD (ecto domain …); assay: Biacore T200, antibody captured, antigen injected, 1:1 model
Method: (§4) To measure TfR binding, anti-human-Fab was immobilized on a CM5 chip, and the TREM2/TfR-binding protein was captured. Full-length human TfR or human TfR apical domain at serial dilution (e.g., concentrations of 1-1000 nM) was flowed over the chip (180 second association time) and then allowed to dissociate. Fitting was performed using a 1:1 binding model. To measure TREM2 binding, anti-human-Fc antibody was immobilized on a CM5 chip, and the TREM2/TfR-binding protein was captured. A range of concentrations of recombinant TREM2-His protein were flowed over the chip, and allowed to associate and dissociate. The resulting sensograms were fitted using a 1:1 Langmuir model to estimate kₒₙ and koff (FIG. 10).
(§5) Biacore Series S CM5 sensor chips were immobilized with a mixture of two monoclonal mouse anti-Fab antibodies (Human Fab capture kit from GE Healthcare). Serial 3-fold dilutions of each antigen were injected at a flow rate of 30 μL/min. The binding of the antigens to captured antibody was monitored for 30 to 180 seconds and then their dissociation was monitored for 30-300 seconds in HBS-EP+running buffer (GE, # BR100669). Binding response was corrected by subtracting the RU from a blank flow cell. A 1:1 Languir model of simultaneous fitting of kₒₙ and koff was used for kinetics analysis.

[9] = biological target: T1, Human TREM2 protein, on cells; assay: cell binding, human TREM2-expressing HEK cells, flow cytometry titration
[10] = biological target: T4, Human TREM2 synthetic 9-mer peptide …; assay: X-ray co-crystal structure
Text: The synthetic 9-mer peptide […] (SEQ ID NO:335), corresponding to amino acid residues 140-148 of human TREM2 (according to UniProtKB entry TREM2_HUMAN) was used for co-crystallization.

[11] = biological target: T5, Human transferrin receptor apical domain (human, UniProt P02786 198-378, limits assumed); assay: Biacore T200, antibody captured, antigen injected, 1:1 model
T5 construct: also called hTfR apical domain; TfR apical domain
Method: as §4, §5

Mouse TREM2, on cells [12] = biological target: T2, Mouse TREM2, on cells; assay: Table 5, cell binding: Mouse TREM2 HEK

T5 sequence (P02786 198-378 limits assumed): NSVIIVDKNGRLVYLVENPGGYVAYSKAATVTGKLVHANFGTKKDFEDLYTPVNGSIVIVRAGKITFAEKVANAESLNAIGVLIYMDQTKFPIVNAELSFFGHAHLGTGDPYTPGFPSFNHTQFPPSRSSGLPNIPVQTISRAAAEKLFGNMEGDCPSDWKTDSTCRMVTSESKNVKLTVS

Row | Binder | pSyk FOB (30 nM Ab) [1] | STREM2 decrease (nM), EC50 [2] | pSyk (nM), EC50 [2] | EC50 [3] | EC50 (Mouse TREM2, on cells [4]) | Kd [5] | FOB (fold over binding) (Mouse TREM2, on cells [6]) | FOB (fold over binding) [7] | Kd [8] | koff [8] | kon [8] | EC50 [9] | binding result [10] | Kd [11] | koff [11] | kon [11] | binding result (Mouse TREM2, on cells [12])
1 | B1 | 8.49 fold over background | 0.3 nM | 15.9 nM | < 2 nM | < 8 nM | 0.733 nM | 73 fold | 13.2 fold | 2.3 nM | 0.00034 s⁻¹ | 150000 M⁻¹ s⁻¹ | 1.62 nM | – | – | – | – | –
2 | B2 | – | – | – | – | – | – | – | – | – | – | – | – | binds | – | – | – | –
3 | B3 | – | – | – | – | – | – | – | – | 2.6 nM | 0.00038 s⁻¹ | 150000 M⁻¹ s⁻¹ | – | – | 110 nM | 0.19 s⁻¹ | 1.7e+06 M⁻¹ s⁻¹ | –
4 | B4 | 17.3 fold over background | – | 49.8 nM | – | – | 12.4 nM | 1.5 fold | 8.6 fold | – | – | – | 7.5 nM | – | – | – | – | no binding
5 | B5 | 9.89 fold over background | – | 20.5 nM | < 2 nM | < 8 nM | 0.852 nM | 75.8 fold | 12.9 fold | – | – | – | 1.54 nM | – | – | – | – | –
6 | B6 | 6.56 fold over background | – | 456 nM | – | – | 2.19 nM | 1.7 fold | 12.8 fold | – | – | – | 4.09 nM | – | – | – | – | no binding
